Data as given in patent US20180030151A1.
Like-named read-outs stand apart in the source and are kept apart here.

Tests used:
[1] = biological target: recombinant human TFPI (tissue factor pathway inhibitor) (human) (UniProt P10646)
[2] = biological target: recombinant human TFPI (tissue factor pathway inhibitor) (human) (UniProt P10646); assay: cell-based or functional assay
[3] = biological target: recombinant human TFPI (tissue factor pathway inhibitor) (human) (UniProt P10646); remark: listed apart in the source
[4] = biological target: recombinant human TFPI (tissue factor pathway inhibitor) (human) (UniProt P10646); assay: cell-based or functional assay; remark: listed apart in the source
[5] = biological target: recombinant human TFPI (tissue factor pathway inhibitor) (human) (UniProt P10646); assay: cell-based or functional assay; remark: listed apart in the source
[6] = biological target: recombinant human TFPI (tissue factor pathway inhibitor) (human) (UniProt P10646); remark: listed apart in the source
[7] = biological target: recombinant human TFPI (tissue factor pathway inhibitor) (human) (UniProt P10646); assay: cell-based or functional assay; remark: listed apart in the source
[8] = biological target: recombinant human TFPI (tissue factor pathway inhibitor) (human) (UniProt P10646); assay: cell-based or functional assay; remark: listed apart in the source
[9] = biological target: recombinant human TFPI (tissue factor pathway inhibitor) (human) (UniProt P10646); remark: listed apart in the source
[10] = biological target: recombinant human TFPI (tissue factor pathway inhibitor) (human) (UniProt P10646); assay: cell-based or functional assay; remark: listed apart in the source

FXa assay % of FXa alone, 2.5 nM Ab, 10 nM TFPI [1]: 5.6%
FXa assay % of FXa alone, 5 nM Ab, 10 nM TFPI [1]: 10.7%
FXa assay % of FXa alone, 10 nM Ab, 10 nM TFPI [1]: 77.7%
FXa assay % of FXa alone, 20 nM Ab, 10 nM TFPI [1]: 84.5%
FXa assay OD, 2.5 nM Ab, 10 nM TFPI [1]: 0.0485
FXa assay OD, 5 nM Ab, 10 nM TFPI [1]: 0.0935
FXa assay OD, 10 nM Ab, 10 nM TFPI [1]: 0.676
FXa assay OD, 20 nM Ab, 10 nM TFPI [1]: 0.735
% of Normalized, TF/FVIIa/FX complex assay, Ab 1.56 nM [2]: 15.8%
% of Normalized, TF/FVIIa/FX complex assay, Ab 3.13 nM [2]: 17.9%
% of Normalized, TF/FVIIa/FX complex assay, Ab 6.25 nM [2]: 18.8%
% of Normalized, TF/FVIIa/FX complex assay, Ab 12.5 nM [2]: 24.4%
% of Normalized, TF/FVIIa/FX complex assay, Ab 25 nM [2]: 100%
% of Normalized, TF/FVIIa/FX complex assay, Ab 50 nM [2]: 99.6%
% of Normalized, TF/FVIIa/FX complex assay, Ab 100 nM [2]: 101%
FXa assay % of FXa alone, 2.5 nM Ab, 10 nM TFPI [3]: 8.5%
FXa assay % of FXa alone, 5 nM Ab, 10 nM TFPI [3]: 66.6%
FXa assay % of FXa alone, 10 nM Ab, 10 nM TFPI [3]: 92.3%
FXa assay % of FXa alone, 20 nM Ab, 10 nM TFPI [3]: 87.6%
FXa assay OD, 2.5 nM Ab, 10 nM TFPI [3]: 0.07
FXa assay OD, 5 nM Ab, 10 nM TFPI [3]: 0.55
FXa assay OD, 10 nM Ab, 10 nM TFPI [3]: 0.763
FXa assay OD, 20 nM Ab, 10 nM TFPI [3]: 0.724
A405, TF/FVIIa/FX complex assay, Ab 1.56 nM [4]: 0.044
A405, TF/FVIIa/FX complex assay, Ab 3.13 nM [4]: 0.046
A405, TF/FVIIa/FX complex assay, Ab 6.25 nM [4]: 0.062
A405, TF/FVIIa/FX complex assay, Ab 12.5 nM [4]: 0.105
A405, TF/FVIIa/FX complex assay, Ab 25 nM [4]: 0.462
A405, TF/FVIIa/FX complex assay, Ab 50 nM [4]: 0.73
A405, TF/FVIIa/FX complex assay, Ab 100 nM [4]: 0.852
A405, TF/FVIIa/FX complex assay, Ab 1.56 nM [5]: 0.137
A405, TF/FVIIa/FX complex assay, Ab 3.13 nM [5]: 0.143
A405, TF/FVIIa/FX complex assay, Ab 6.25 nM [5]: 0.156
A405, TF/FVIIa/FX complex assay, Ab 12.5 nM [5]: 0.241
A405, TF/FVIIa/FX complex assay, Ab 25 nM [5]: 0.932
A405, TF/FVIIa/FX complex assay, Ab 50 nM [5]: 0.953
A405, TF/FVIIa/FX complex assay, Ab 100 nM [5]: 0.952
FXa assay % of FXa alone, 2.5 nM Ab, 10 nM TFPI [6]: 8.4%
FXa assay % of FXa alone, 5 nM Ab, 10 nM TFPI [6]: 21%
FXa assay % of FXa alone, 10 nM Ab, 10 nM TFPI [6]: 90.7%
FXa assay % of FXa alone, 20 nM Ab, 10 nM TFPI [6]: 95.2%
FXa assay OD, 2.5 nM Ab, 10 nM TFPI [6]: 0.101
FXa assay OD, 5 nM Ab, 10 nM TFPI [6]: 0.249
FXa assay OD, 10 nM Ab, 10 nM TFPI [6]: 1.08
FXa assay OD, 20 nM Ab, 10 nM TFPI [6]: 1.13
% of Normalized, TF/FVIIa/FX complex assay, Ab 1.56 nM [7]: 5.2%
% of Normalized, TF/FVIIa/FX complex assay, Ab 3.13 nM [7]: 5.4%
% of Normalized, TF/FVIIa/FX complex assay, Ab 6.25 nM [7]: 7.3%
% of Normalized, TF/FVIIa/FX complex assay, Ab 12.5 nM [7]: 12.4%
% of Normalized, TF/FVIIa/FX complex assay, Ab 25 nM [7]: 54.4%
% of Normalized, TF/FVIIa/FX complex assay, Ab 50 nM [7]: 86.1%
% of Normalized, TF/FVIIa/FX complex assay, Ab 100 nM [7]: 100%
A405, TF/FVIIa/FX complex assay, Ab 1.56 nM [8]: 0.151
A405, TF/FVIIa/FX complex assay, Ab 3.13 nM [8]: 0.171
A405, TF/FVIIa/FX complex assay, Ab 6.25 nM [8]: 0.18
A405, TF/FVIIa/FX complex assay, Ab 12.5 nM [8]: 0.233
A405, TF/FVIIa/FX complex assay, Ab 25 nM [8]: 0.955
A405, TF/FVIIa/FX complex assay, Ab 50 nM [8]: 0.951
A405, TF/FVIIa/FX complex assay, Ab 100 nM [8]: 0.966
FXa assay % of FXa alone, 2.5 nM Ab, 10 nM TFPI [9]: 12.3%
FXa assay % of FXa alone, 5 nM Ab, 10 nM TFPI [9]: 90%
FXa assay % of FXa alone, 10 nM Ab, 10 nM TFPI [9]: 96.5%
FXa assay % of FXa alone, 20 nM Ab, 10 nM TFPI [9]: 88.8%
FXa assay OD, 2.5 nM Ab, 10 nM TFPI [9]: 0.0945
FXa assay OD, 5 nM Ab, 10 nM TFPI [9]: 0.693
FXa assay OD, 10 nM Ab, 10 nM TFPI [9]: 0.743
FXa assay OD, 20 nM Ab, 10 nM TFPI [9]: 0.683
% of Normalized, TF/FVIIa/FX complex assay (FX 5 nM), Ab 1.56 nM [10]: 5.3%
% of Normalized, TF/FVIIa/FX complex assay (FX 5 nM), Ab 3.13 nM [10]: 5.7%
% of Normalized, TF/FVIIa/FX complex assay (FX 5 nM), Ab 6.25 nM [10]: 6.1%
B1: mAb2021 (anti-TFPI Ab, Novo Nordisk) (antibody, from another filing, V domains shown)
VH: EVQLVESGGGLVKPGGSLRLSCAASGFTFSNYAMSWVRQTPEKRLEWVATISRSGSYSYFPDSVQGRFTISRDNAKNSLYLQMNSLRAEDTAVYYCARLGGYDEGDAMDSWGQGTTVTVSS
VL: DIVMTQTPLSLSVTPGQPASISCKSSQSLLESDGKTYLNWYLQKPGQSPQLLIYLVSILDSGVPDRFSGSGSGTDFTLKISRVEAEDVGVYYCLQATHFPQTFGGGTKVEIKR
